Results from patent publication CN109988240A (ANYUAN BIOTECHNOLOGY SHANGHAI CO LTD; PHARMAB SHANGHAI …, dated 2019).
Substitutions are numbered along the chain they refer to.

Tests used:
人GPC-3-His(北京义翘神州生物) [1] = biological target: T1, 人GPC-3-His(北京义翘神州生物) (human, UniProt P51654 25-559); assay: affinity and kinetics of Table 2 (table not shown; method not named here, taken as BLI of Example 3.2)
T1 construct: Bought His-tagged protein, coupled to Ni-NTA sensors in the BLI assay; not shown: His tag

[2] = biological target: T2, 人GPC-3抗原 (磷脂酰肌醇蛋白聚糖3, Glypican-3) (human, UniProt P51654 25-559, limits assumed); assay: indirect ELISA, GPC-3 antigen coated at 0.2 μg/ml
T2 construct: The immunogen was bought from Sino Biological (北京义翘神州生物); also called GPC-3蛋白

人GPC-3-His(北京义翘神州生物) [3] = biological target: T1, 人GPC-3-His(北京义翘神州生物); assay: BLI (ForteBio Octet), human GPC-3-His on Ni-NTA sensor
人GPC-3-His(北京义翘神州生物) [4] = biological target: T1, 人GPC-3-His(北京义翘神州生物); assay: BLI (ForteBio Octet), human GPC-3-His on Ni-NTA sensor, antibody 3.125-100 nM
[5] = biological target: T2, 人GPC-3抗原 (磷脂酰肌醇蛋白聚糖3, Glypican-3); assay: indirect ELISA on coated GPC-3, goat anti-human IgG-HRP detection
[6] = biological target: T2, 人GPC-3抗原 (磷脂酰肌醇蛋白聚糖3, Glypican-3); assay: competition ELISA on coated GPC-3 (0.1 μg/ml), competitor GPC-3 antibody-HRP

T2 sequence (P51654 25-559 limits assumed): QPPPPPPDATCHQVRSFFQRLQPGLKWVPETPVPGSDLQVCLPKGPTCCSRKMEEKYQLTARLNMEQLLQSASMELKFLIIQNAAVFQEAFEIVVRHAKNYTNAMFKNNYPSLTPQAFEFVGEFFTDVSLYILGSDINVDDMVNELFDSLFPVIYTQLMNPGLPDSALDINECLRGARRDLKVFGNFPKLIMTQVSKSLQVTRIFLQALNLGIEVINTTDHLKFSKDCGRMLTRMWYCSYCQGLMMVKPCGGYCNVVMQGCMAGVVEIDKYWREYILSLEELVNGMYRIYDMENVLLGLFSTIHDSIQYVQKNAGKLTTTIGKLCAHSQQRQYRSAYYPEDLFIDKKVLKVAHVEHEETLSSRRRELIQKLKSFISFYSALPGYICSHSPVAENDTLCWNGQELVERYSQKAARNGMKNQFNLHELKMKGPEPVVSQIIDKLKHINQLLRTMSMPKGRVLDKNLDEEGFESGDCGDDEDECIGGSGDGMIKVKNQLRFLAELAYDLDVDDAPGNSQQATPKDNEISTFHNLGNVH
T1 sequence (P51654 25-559 limits assumed): as above

B1: 人源化抗体AB13E3 (antibody, V domains shown)
VH: QVQLVQSGAEVKKPGASVKVSCKASGYTFTDYEMHWVKQAPGQGLEWIGAIDPQTGNTAFNQKFKGRVTLTRDKSSSTVYMELSSLRSEDTAVYYCTRFYSLTYWGQGTLVTVSS
VL: DVLMTQSPLSLPVTLGQPASISCRSSQSIVHSNGNTYLQWYLQRPGQSPKLLIYKVSNRFSGVPDRFSGSGSGTYFTLKISRVEAEDVGVYYCFQGSHFPYAFGGGTKVEIK
notes: Humanized from GPC3#4 by CDR grafting; detected with goat anti-human IgG
How did the Kd (人GPC-3-His(北京义翘神州生物) [1]) turn out when B1 was run?
Its Kd is less than 10 pM.

B2: 鼠单克隆抗体GPC3#4(杂交瘤细胞株DWX-1分泌) (antibody, V domains shown)
VH: QVQLQQSGAELVRPGAPVTLSCKASGYTFTDYEMHWVKQTPVNGLEWIGAIDPQTGNTAFNQKFKGKAILTADKSSSTAYMEVRSLTSEGSAVYYCTRFYSLTYWGQGTLVTVSA
VL: B1 VL with S7V, T14S, Q17D, P18Q, R44K, V88L, V109L
notes: Mouse antibody purified from hybridoma DWX-1; also called 鼠源抗体GPC3#4; 鼠单抗GPC3#4
With B2 as the binder, how does the EC50 [2] read?
Its EC50 is roughly 0.01 µg/mL.

And the Kd (人GPC-3-His(北京义翘神州生物) [3])?
Its Kd is less than 10 pM.

What about the Kd (人GPC-3-His(北京义翘神州生物) [4]) of the same binder?
The Kd was 1.07 pM.

What about the koff (人GPC-3-His(北京义翘神州生物) [4]) of the same binder?
The koff was 1e-07 s⁻¹.

What about the kon (人GPC-3-His(北京义翘神州生物) [4]) of the same binder?
The kon was 624000 M⁻¹ s⁻¹.

B3: 人源化抗体AB13E1 (antibody, V domains shown)
VH: B1 VH with K38R, I48M, A50I, A59S, F60Y, N61A, K65Q, L70M, K74T, S76T
VL: B1 VL with L3V, Q39N, Y41F, L42Q, K50R, L51R, F60D, Y75D
notes: Humanized from GPC3#4 by CDR grafting
How did the Kd (人GPC-3-His(北京义翘神州生物) [1]) turn out when B3 was run?
The Kd was less than 10 pM.

B4: 人源化抗体AB13E5 (antibody, V domains shown)
VH: QVQLVQSGAEVKKPGASVTLSCKASGYTFTDYEMHWVRQAPGQGLEWMGIIDPQTGNTSYAQKFQGRVTMTRDTSTSTVYMELSSLRSEGSAVYYCTRFYSLTYWGQGTLVTVSS
VL: B1 VL with L3V, Q17D, P18Q, Q39N, Y41F, L42Q, K50R, L51R, F60D, Y75D
notes: as for B3
For B4, which Kd (人GPC-3-His(北京义翘神州生物) [1]) is on record?
The Kd was less than 10 pM.

B5: 人源化抗体AB13E2 (antibody, V domains shown)
VH: B4 VH with T19K, L20V, M48I, I50A, G90D, S91T
VL: B1 VL with L3V, Q39N, Y41F, L42Q, F60D, Y75D, V109L
notes: as for B3
For B5, which Kd (人GPC-3-His(北京义翘神州生物) [1]) is on record?
The Kd was less than 10 pM.

B6: 人源化抗体AB13E4 (antibody, V domains shown)
VH: B1 VH with K12V, V20L, A40T, V68A, V79A, L83V, D90G
VL: B1 VL with R44K, V109L
notes: Humanized from GPC3#4 by resurfacing; detected with goat anti-human IgG
How did the EC50 [5] turn out when B6 was run?
Its EC50 is 0.001 to 0.01 µg/mL.

What about the EC50 [6] of the same binder?
The EC50 was 0.1 to 1 µg/mL.

What about the Kd (人GPC-3-His(北京义翘神州生物) [1]) of the same binder?
Its Kd is less than 10 pM.
